Data: PMC6459857

Columns and labels:
Cdk2 [1] = target: Cdk2 (UniProt P24941); experiment: single-molecule fluorescence anisotropy, BODIPY at C93; conditions: reference: unphosphorylated p27-C93; sites Y88
Cdk2 [2] = target: Cdk2 (UniProt P24941); experiment: single-molecule FRET, dyes at C54 and C93; conditions: reference: unphosphorylated p27-C54-93; sites Y88

other: fraction in flexible state (Cdk2 [1])	other: fraction in released minor state (Cdk2 [2])	Substance
weaker; reference 33		p27Kip1 (p27) 1-198 (from UniProt P46527) pY88-p27-C93
	weaker; reference 17	p27Kip1 (p27) 1-198 (from UniProt P46527) pY88-p27-C54-93
